The source of these data is patent US7960513B2, “Antibody against a human ADAM protease” (Monash University, priority 2004, dated 2011).

In one data set the test system is EphA3/HEK293 cells. Kind of data set: Ephrin-A5 cleavage and internalisation in EphA3-expressing cells treated with clustered ephrin-A5-Fc / ephrinA5-Fc beads. The class given is cell-based, human. Here is the method:
FIG. 1. EphA3-ADAM10 association, ephrin-A5 cleavage and ephrin internalisation. • A. Association of ADAM10 with EphA3 in LiBr melanoma cells and parental or stably transfected EphA3/HEK293 cells. The cells were treated with clustered ephrin-Fc (A5 or A2) or were left untreated (−) prior to lysis. Anti-EphA3 immunoprecipitates from lysates were analysed by Western blot for endogenous ADAM10 (“p” and “m” indicate the pro (unprocessed) and mature (processed) forms of ADAM10). Aliquots from immunoprecipitates were blotted for EphA3 levels to indicate loading (lower panel). […] EphA3/HEK293 or ephrin-A5/HEK293 cells were transfected to express HA-tagged ADAM10ΔPM. Western Blots of anti-HA immuno-precipitates were analysed with antibodies against ephrin-A5 and EphA3, parallel control samples with anti-ADAM10 antibodies. Lysates of ephrin-A5/HEK 293 cells were also extracted with Protein-A Sepharose-bound EphA3 Fc and analysed with anti-ephrin-A5 antibodies. • C. […] Pooled cell lysates and supernatants were pre-cleared with excess Protein-A Sepharose, cleaved ephrin-A5 was extracted using EphA3-Fc coupled to Protein-A Sepharose and analysed by anti-ephrin-A5 immuno-blot. Recombinant, monomeric, single-chain ephrin-A5 (Himanen et al., 2004, Nat Neurosci. 7 501-9; ephrin std) was analysed in parallel. • D. Ephrin-A5 cleavage and internalisation are inhibited by dominant-negative ADAM10. […]

Data set [1] deals with T1, EphA3/ephrin-A5 complex on cells (cell-surface EphA3 with pre-clustered ephrin-A5-Fc), P29320.
T1 chain 1: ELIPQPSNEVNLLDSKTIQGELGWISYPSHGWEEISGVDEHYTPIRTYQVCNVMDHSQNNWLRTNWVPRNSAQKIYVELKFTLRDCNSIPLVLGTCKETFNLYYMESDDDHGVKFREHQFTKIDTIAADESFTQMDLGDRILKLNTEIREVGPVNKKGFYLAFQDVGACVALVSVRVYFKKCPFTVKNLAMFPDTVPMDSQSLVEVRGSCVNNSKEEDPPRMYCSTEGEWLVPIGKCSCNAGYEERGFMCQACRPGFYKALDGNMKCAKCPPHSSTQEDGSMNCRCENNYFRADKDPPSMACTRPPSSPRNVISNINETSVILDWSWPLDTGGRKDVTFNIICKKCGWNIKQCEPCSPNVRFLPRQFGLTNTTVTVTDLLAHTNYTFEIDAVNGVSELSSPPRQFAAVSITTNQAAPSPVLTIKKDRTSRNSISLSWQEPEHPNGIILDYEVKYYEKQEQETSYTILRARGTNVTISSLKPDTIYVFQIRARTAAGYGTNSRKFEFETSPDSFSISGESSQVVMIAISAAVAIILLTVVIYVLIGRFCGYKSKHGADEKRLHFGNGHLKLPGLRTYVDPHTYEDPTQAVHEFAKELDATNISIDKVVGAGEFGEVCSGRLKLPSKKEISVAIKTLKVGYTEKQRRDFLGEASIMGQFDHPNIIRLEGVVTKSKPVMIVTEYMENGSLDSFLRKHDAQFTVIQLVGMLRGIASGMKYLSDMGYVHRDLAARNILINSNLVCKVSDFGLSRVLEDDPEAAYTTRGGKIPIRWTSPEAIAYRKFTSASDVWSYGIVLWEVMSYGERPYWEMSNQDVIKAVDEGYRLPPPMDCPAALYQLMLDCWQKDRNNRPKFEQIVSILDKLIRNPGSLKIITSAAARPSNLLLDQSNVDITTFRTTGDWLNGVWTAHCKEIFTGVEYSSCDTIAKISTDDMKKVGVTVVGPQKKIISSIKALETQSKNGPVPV
T1 chain 2: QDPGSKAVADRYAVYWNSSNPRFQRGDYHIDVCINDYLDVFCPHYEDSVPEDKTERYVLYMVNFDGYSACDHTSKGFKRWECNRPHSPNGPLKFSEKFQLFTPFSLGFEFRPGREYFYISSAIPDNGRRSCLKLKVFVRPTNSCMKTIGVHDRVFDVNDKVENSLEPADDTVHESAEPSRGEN

The target in a further data set is T2, EphA3/ephrin-A5 complex (Homo sapiens, UniProt P29320+P52803).
T2 construct: incubated with Fc-tagged ectodomains of Eph-A3, EphB2, EphB4 and ephrin-A2, ephrin-A5, ephrin-B2 (R&D systems)
T2 sequence (P29320 21-541 limits assumed): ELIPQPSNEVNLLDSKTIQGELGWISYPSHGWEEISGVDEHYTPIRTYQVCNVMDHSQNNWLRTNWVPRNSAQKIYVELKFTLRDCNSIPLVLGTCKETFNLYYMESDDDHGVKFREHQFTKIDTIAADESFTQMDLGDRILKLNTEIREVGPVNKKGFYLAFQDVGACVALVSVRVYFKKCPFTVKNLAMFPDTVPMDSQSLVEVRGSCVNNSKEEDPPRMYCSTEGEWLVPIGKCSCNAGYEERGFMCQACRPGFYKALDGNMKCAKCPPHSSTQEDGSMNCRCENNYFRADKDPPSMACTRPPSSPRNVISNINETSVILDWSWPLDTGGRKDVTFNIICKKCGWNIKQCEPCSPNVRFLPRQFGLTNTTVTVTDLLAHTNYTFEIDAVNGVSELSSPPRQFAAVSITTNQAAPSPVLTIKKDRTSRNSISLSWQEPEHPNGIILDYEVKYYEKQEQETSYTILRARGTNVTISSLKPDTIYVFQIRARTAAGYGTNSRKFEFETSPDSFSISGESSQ
T2 sequence (P52803 21-203 limits assumed): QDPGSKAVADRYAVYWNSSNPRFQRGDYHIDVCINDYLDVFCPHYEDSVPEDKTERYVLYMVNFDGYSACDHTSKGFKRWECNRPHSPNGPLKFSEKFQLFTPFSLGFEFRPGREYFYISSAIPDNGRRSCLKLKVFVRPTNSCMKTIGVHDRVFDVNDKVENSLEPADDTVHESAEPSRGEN
In words: In vitro binding (Protein-A pull-down) assay. The note with it: EphA3-Fc plus untagged ephrin-A5. Here is the method: Pull-down experiments were done as follows: ADAM10D+C, ADAM17D+C w.t. or the alanine mutants (˜15 μg) were incubated with Fc-tagged ectodomains of Eph-A3, EphB2, EphB4 and ephrin-A2, ephrin-A5, ephrin-B2 (R&D systems) at 4° C. for 30 min in 500 μL of binding buffer containing 10 mM HEPES (pH 7.4), 150 mM NaCl and 0.05% of Triton X-100. To test binding to the preformed EphA3/ephrin-A5 complex, 5 μg of the untagged ephrin-A5 was incubated with Fc tagged EphA3 for 30 min at 4° C. followed by the addition of ADAM10. The proteins were incubated for an additional 30 min., when Protein-A-Sepharose (Amersham) beads were added to the reaction mixture and shaken at 4° C. for 2h. The beads were then harvested by centrifugation, washed once with 500 μl of binding buffer and the bound proteins were separated on a 10-20% gradient polyacrylamide gel. The binding of the individual ADAM domains was carried out likewise using 15 μg of the disintegrin and 8 μg of the cysteine-rich domain.

Regarding `c1cnc2c(c1)ccc1cccnc12` [1,10-O-Phenanthroline], in the data set on EphA3/HEK293 cells (pretreated with 1 mM OPN (4h)), the “ephrin-A5 cleavage and internalisation” value was “inhibited”.
Turning to `CC(C)C[C@H](CC(=O)NO)C(=O)N[C@@H](Cc1ccc2ccccc2c1)C(=O)N[C@@H](C)C(=O)NCCN` [TAPI], the “ephrin-A5 cleavage and internalisation” value in the data set with EphA3/HEK293 cells (pretreated with 50 μM TAPI1 (1h)) is on record as “inhibited”.

B1: full-length ADAM10[EEE-A] (protein)
chain: TTVAEKNTCQLYIQTDHLFFKYYGTREAVIAQISSHVKAIDTIYQTTDFSGIRNISFMVKRIRINTTADEKDPTNPFRFPNIGVEKFLELNSEQNHDDYCLAYVFTDRDFDDGVLGLAWVGAPSGSSGGICEKSKLYSDGKKKSLNTGIITVQNYGSHVPPKVSHITFAHEVGHNFGSPHDSGTECTPGESKNLGQKENGNYIMYARATSGDKLNNNKFSLCSIRNISQVLEKKRNNCFVESGQPICGNGMVEQGEECDCGYSDQCKDECCYDANQPEGKKCKLKPGKQCSPSQGPCCTAHCAFKSKTEKCRDDSDCAKEGICNGITALCPASDPKPNFTDCNRHTQVCINGQCAGSICAKHGLAACTCASSDGKDDKELCHVCCMKKMEPSTCASTGSVQWNKYFLGRTITLQPGSPCNDFRGYCDVFMRCRLVDADGPLARLKKAIFSPELYENIAEWIVAYWWAVLLMGIALIMLMAGFIKICSVHTPSSNPKLPPPKPLPGTLKRRRPPQPIQQPQRQRPRESYQMGHMRR
As for B1, the “ephrin-A5 cleavage (cleaved ephrin-A5 recovered with EphA3-Fc, anti-ephrin-A5 Western blot)” value in data set [1] is “overexpression of mutant ADAM10 with Ala or Lys substitutions of the three Glu residues or lacking the protease domain, effectively inhibited ephrin-A5 cleavage”.

B2: full-length ADAM10 with lysine (3K) substitutions of Glu573, 578, 579 (protein)
chain: TTVAEKNTCQLYIQTDHLFFKYYGTREAVIAQISSHVKAIDTIYQTTDFSGIRNISFMVKRIRINTTADEKDPTNPFRFPNIGVEKFLELNSEQNHDDYCLAYVFTDRDFDDGVLGLAWVGAPSGSSGGICEKSKLYSDGKKKSLNTGIITVQNYGSHVPPKVSHITFAHEVGHNFGSPHDSGTECTPGESKNLGQKENGNYIMYARATSGDKLNNNKFSLCSIRNISQVLEKKRNNCFVESGQPICGNGMVEQGEECDCGYSDQCKDECCYDANQPEGKKCKLKPGKQCSPSQGPCCTAHCAFKSKTEKCRDDSDCAKEGICNGITALCPASDPKPNFTDCNRHTQVCINGQCAGSICKKHGLKKCTCASSDGKDDKELCHVCCMKKMEPSTCASTGSVQWNKYFLGRTITLQPGSPCNDFRGYCDVFMRCRLVDADGPLARLKKAIFSPELYENIAEWIVAYWWAVLLMGIALIMLMAGFIKICSVHTPSSNPKLPPPKPLPGTLKRRRPPQPIQQPQRQRPRESYQMGHMRR
Take B2: the “ephrin-A5 cleavage (cleaved ephrin-A5 recovered with EphA3-Fc, anti-ephrin-A5 Western blot)” value in data set [1] was “overexpression of mutant ADAM10 with Ala or Lys substitutions of the three Glu residues or lacking the protease domain, effectively inhibited ephrin-A5 cleavage”.

B3: ADAM10D+C[EEE-A]: ADAM10D+C with Glu573, Glu578 and Glu579 mutated to alanines (protein)
chain: SGQPICGNGMVEQGEECDCGYSDQCKDECCYDANQPEGKKCKLKPGKQCSPSQGPCCTAHCAFKSKTEKCRDDSDCAKEGICNGITALCPASDPKPNFTDCNRHTQVCINGQCAGSICAKHGLAACTCASSDGKDDKELCHVCCMKKMEPSTCASTGSVQWNKYFLGRTITLQPGSPCNDFRGYCDVFMRCR
For the molecule B3, the “binding to EphA3/ephrin-A5 complex” value in the data set with EphA3/ephrin-A5 complex is reported as “does not bind”.

B4: ADAM10D+C[RDD-A]: ADAM10D+C with Ala substitutions of Arg525, Asp526, Asp527 (protein)
chain: SGQPICGNGMVEQGEECDCGYSDQCKDECCYDANQPEGKKCKLKPGKQCSPSQGPCCTAHCAFKSKTEKCAAASDCAKEGICNGITALCPASDPKPNFTDCNRHTQVCINGQCAGSICEKHGLEECTCASSDGKDDKELCHVCCMKKMEPSTCASTGSVQWNKYFLGRTITLQPGSPCNDFRGYCDVFMRCR
As to B4, the “binding to EphA3/ephrin-A5 complex” value in the data set with EphA3/ephrin-A5 complex is reported as “retains wild-type binding affinity”.
